Columns and labels:
[1] = target: T1, FtsZ from Pseudomonas aeruginosa (P. aeruginosa, UniProt P47204 1-394); assay: co-sedimentation; 15 uM FtsZ with 15 or 30 uM ZapAL, 1 mM GTP, 10 min at room temperature, 80,000 rpm for 30 min at 25 C (Beckman TLA100); pellet and supernatant by SDS-PAGE and ImageJ; conditions: both partners purified
T1 construct: FtsZ, Pseudomonas aeruginosa; pET15b containing the entire ftsZ gene (NdeI/BamHI); His6 tag removed with thrombin; The construct is from Chen et al., 2012; Residues of the vector may be left after the thrombin cut; Forms protofilaments with GTP; also called PaFtsZ; source: E. coli BL21(DE3), purified (Talon column, thrombin, source Q column)
T1 sequence (looked up): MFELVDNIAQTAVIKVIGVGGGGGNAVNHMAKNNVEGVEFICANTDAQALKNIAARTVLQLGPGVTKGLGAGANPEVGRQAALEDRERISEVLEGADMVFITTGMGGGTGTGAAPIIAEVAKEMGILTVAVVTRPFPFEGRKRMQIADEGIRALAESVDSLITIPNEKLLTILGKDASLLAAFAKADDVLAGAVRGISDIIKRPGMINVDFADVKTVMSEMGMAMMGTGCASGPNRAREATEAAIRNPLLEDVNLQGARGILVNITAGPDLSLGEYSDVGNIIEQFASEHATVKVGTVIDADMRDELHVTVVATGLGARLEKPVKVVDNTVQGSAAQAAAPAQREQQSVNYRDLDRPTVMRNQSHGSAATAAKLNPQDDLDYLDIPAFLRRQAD

[2] = target: T1, FtsZ from Pseudomonas aeruginosa; assay: light scattering; FtsZ with ZapAL, ZapA or a 1:1 mixture of both, mixed with 1 mM or 0.1 mM GTP, HMK buffer (50 mM HEPES pH 7.5, 5 mM MgAc, 100 mM KAc), room temperature, 340 nm; conditions: both partners purified

B1: ZapA-Like protein (ZapAL; PA5407) from Pseudomonas aeruginosa (natural protein, P. aeruginosa, UniProt Q9HTF7 1-96, looked up)
chain: MSRDGVQVLSILGRDYSIRVPAGEERALADAAALLQAEVDANKRKFPYVTSNELVVLSALNLCARQLGANDGESPRLRAVEQRLEALVERIAGASG
notes: ZapA-Like protein ZapAL (PA5407), Pseudomonas aeruginosa, 96 amino acids; pET15b containing the entire zapAL gene (NdeI/BamHI); Stored and used with the His6 tag; also called ZapL; source: E. coli BL21(DE3), purified (Talon column)
[1]
  stoichiometry N: ~1 FtsZ:ZapAL (molar ratio)

B2: ZapA (PA5227) from Pseudomonas aeruginosa (natural protein, P. aeruginosa, UniProt Q9HTW3 1-104, looked up)
chain: MSQSNTLTVQILDKEYCINCPDDERANLESAARYLDGKMREIRSSGKVIGADRVAVMAALNITHDLLHRKERLDQESSSTRERVRELLDRVDRALANPADAGEA
notes: pET15b containing the entire zapA gene (NdeI/BamHI); The construct is from Rahman et al., 2020; Stored and used with the His6 tag; also called PA5207; source: E. coli BL21(DE3), purified (Talon column)
[2]
  binding result: binds
